This data set relates to CYT-19. Kind of data set: ensemble unwinding (CYT-19 concentration dependence). To be noted: kmax 0.86 min-1; functional K1/2 for unwinding; substrate probably -1d,rSA5 = CCCUCdUAAAAA (2'-deoxy at U -1); Ribozyme buffer for complex assembly: 50 mM MOPS pH 7.0, 10 mM MgCl2, 25 C; exact CYT-19/Ded1 assay buffer not in the material.

K half data for one substance are collected here from paper PMC4211656.

On to “L-16/ScaI group I ribozyme with standard 11-bp P1 (ensemble)”, for which the K half came out at 5.7 µM.
